Measured values from US20210388087A1 (Chugai, published 2021).

T1: Human CD3eg linker (human)
T1 construct: Single-chain construct; also called recombinant human CD3
T1 chain: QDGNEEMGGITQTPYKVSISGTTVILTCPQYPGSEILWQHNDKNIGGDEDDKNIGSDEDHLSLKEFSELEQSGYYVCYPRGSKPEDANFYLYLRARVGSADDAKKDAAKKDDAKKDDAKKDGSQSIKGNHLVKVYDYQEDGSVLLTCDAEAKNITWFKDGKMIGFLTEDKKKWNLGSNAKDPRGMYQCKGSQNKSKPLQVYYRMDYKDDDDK


Target: T1, Human CD3eg linker
Test: SPR; fold vs parent H183/L072

| fold change of affinity [fold] | Binder |
| --- | --- |
| 1.4 | H183/L072 VL L33H (antibody, name in Kabat numbering, V domains shown) VH: QVQLVESGGGLVQPGRSLRLSCAASGFTFSNAWMHWVRQAPGKGLEWVAQIKDKGNAYAAYYAPSVKGRFTISRDDSKNSIYLQMNSLKTEDTAVYYCHYVHYASASTVLPAFGVDAWGQGTTVTVSS VL: DIVMTQSPLSLPVTPGEPASISCQASQELVHMNRNTYHHWYQQKPGQAPRLLIYKVSNRFPGVPDRFSGSGSGTDFTLKISRVEAEDVGVYYCAQGTSVPFTFGQGTKLEIK |
| 0.9 | H183/L072 VL M27eI (antibody, name in Kabat numbering, V domains shown) VH: QVQLVESGGGLVQPGRSLRLSCAASGFTFSNAWMHWVRQAPGKGLEWVAQIKDKGNAYAAYYAPSVKGRFTISRDDSKNSIYLQMNSLKTEDTAVYYCHYVHYASASTVLPAFGVDAWGQGTTVTVSS VL: DIVMTQSPLSLPVTPGEPASISCQASQELVHINRNTYLHWYQQKPGQAPRLLIYKVSNRFPGVPDRFSGSGSGTDFTLKISRVEAEDVGVYYCAQGTSVPFTFGQGTKLEIK |
| 0.3 | H183/L072 VL L33T (antibody, name in Kabat numbering, V domains shown) VH: QVQLVESGGGLVQPGRSLRLSCAASGFTFSNAWMHWVRQAPGKGLEWVAQIKDKGNAYAAYYAPSVKGRFTISRDDSKNSIYLQMNSLKTEDTAVYYCHYVHYASASTVLPAFGVDAWGQGTTVTVSS VL: DIVMTQSPLSLPVTPGEPASISCQASQELVHMNRNTYTHWYQQKPGQAPRLLIYKVSNRFPGVPDRFSGSGSGTDFTLKISRVEAEDVGVYYCAQGTSVPFTFGQGTKLEIK |
| 1.1 | H183/L072 VL L33M (antibody, name in Kabat numbering, V domains shown) VH: QVQLVESGGGLVQPGRSLRLSCAASGFTFSNAWMHWVRQAPGKGLEWVAQIKDKGNAYAAYYAPSVKGRFTISRDDSKNSIYLQMNSLKTEDTAVYYCHYVHYASASTVLPAFGVDAWGQGTTVTVSS VL: DIVMTQSPLSLPVTPGEPASISCQASQELVHMNRNTYMHWYQQKPGQAPRLLIYKVSNRFPGVPDRFSGSGSGTDFTLKISRVEAEDVGVYYCAQGTSVPFTFGQGTKLEIK |
| 0.4 | H183/L072 VL L33V (antibody, name in Kabat numbering, V domains shown) VH: QVQLVESGGGLVQPGRSLRLSCAASGFTFSNAWMHWVRQAPGKGLEWVAQIKDKGNAYAAYYAPSVKGRFTISRDDSKNSIYLQMNSLKTEDTAVYYCHYVHYASASTVLPAFGVDAWGQGTTVTVSS VL: DIVMTQSPLSLPVTPGEPASISCQASQELVHMNRNTYVHWYQQKPGQAPRLLIYKVSNRFPGVPDRFSGSGSGTDFTLKISRVEAEDVGVYYCAQGTSVPFTFGQGTKLEIK |
| 0.9 | H183/L072 VL M27eF (antibody, name in Kabat numbering, V domains shown) VH: QVQLVESGGGLVQPGRSLRLSCAASGFTFSNAWMHWVRQAPGKGLEWVAQIKDKGNAYAAYYAPSVKGRFTISRDDSKNSIYLQMNSLKTEDTAVYYCHYVHYASASTVLPAFGVDAWGQGTTVTVSS VL: DIVMTQSPLSLPVTPGEPASISCQASQELVHFNRNTYLHWYQQKPGQAPRLLIYKVSNRFPGVPDRFSGSGSGTDFTLKISRVEAEDVGVYYCAQGTSVPFTFGQGTKLEIK |
| 0.8 | H183/L072 VL M27eD (antibody, name in Kabat numbering, V domains shown) VH: QVQLVESGGGLVQPGRSLRLSCAASGFTFSNAWMHWVRQAPGKGLEWVAQIKDKGNAYAAYYAPSVKGRFTISRDDSKNSIYLQMNSLKTEDTAVYYCHYVHYASASTVLPAFGVDAWGQGTTVTVSS VL: DIVMTQSPLSLPVTPGEPASISCQASQELVHDNRNTYLHWYQQKPGQAPRLLIYKVSNRFPGVPDRFSGSGSGTDFTLKISRVEAEDVGVYYCAQGTSVPFTFGQGTKLEIK |
| 0 | H183/L072 VL L33N (antibody, name in Kabat numbering, V domains shown) VH: QVQLVESGGGLVQPGRSLRLSCAASGFTFSNAWMHWVRQAPGKGLEWVAQIKDKGNAYAAYYAPSVKGRFTISRDDSKNSIYLQMNSLKTEDTAVYYCHYVHYASASTVLPAFGVDAWGQGTTVTVSS VL: DIVMTQSPLSLPVTPGEPASISCQASQELVHMNRNTYNHWYQQKPGQAPRLLIYKVSNRFPGVPDRFSGSGSGTDFTLKISRVEAEDVGVYYCAQGTSVPFTFGQGTKLEIK |
| 0.9 | H183/L072 VL M27eH (antibody, name in Kabat numbering, V domains shown) VH: QVQLVESGGGLVQPGRSLRLSCAASGFTFSNAWMHWVRQAPGKGLEWVAQIKDKGNAYAAYYAPSVKGRFTISRDDSKNSIYLQMNSLKTEDTAVYYCHYVHYASASTVLPAFGVDAWGQGTTVTVSS VL: DIVMTQSPLSLPVTPGEPASISCQASQELVHHNRNTYLHWYQQKPGQAPRLLIYKVSNRFPGVPDRFSGSGSGTDFTLKISRVEAEDVGVYYCAQGTSVPFTFGQGTKLEIK |
| 0 | H183/L072 VL L33K (antibody, name in Kabat numbering, V domains shown) VH: QVQLVESGGGLVQPGRSLRLSCAASGFTFSNAWMHWVRQAPGKGLEWVAQIKDKGNAYAAYYAPSVKGRFTISRDDSKNSIYLQMNSLKTEDTAVYYCHYVHYASASTVLPAFGVDAWGQGTTVTVSS VL: DIVMTQSPLSLPVTPGEPASISCQASQELVHMNRNTYKHWYQQKPGQAPRLLIYKVSNRFPGVPDRFSGSGSGTDFTLKISRVEAEDVGVYYCAQGTSVPFTFGQGTKLEIK |
| 0 | H183/L072 VL L33S (antibody, name in Kabat numbering, V domains shown) VH: QVQLVESGGGLVQPGRSLRLSCAASGFTFSNAWMHWVRQAPGKGLEWVAQIKDKGNAYAAYYAPSVKGRFTISRDDSKNSIYLQMNSLKTEDTAVYYCHYVHYASASTVLPAFGVDAWGQGTTVTVSS VL: DIVMTQSPLSLPVTPGEPASISCQASQELVHMNRNTYSHWYQQKPGQAPRLLIYKVSNRFPGVPDRFSGSGSGTDFTLKISRVEAEDVGVYYCAQGTSVPFTFGQGTKLEIK |
| 1.2 | H183/L072 VL M27eP (antibody, name in Kabat numbering, V domains shown) VH: QVQLVESGGGLVQPGRSLRLSCAASGFTFSNAWMHWVRQAPGKGLEWVAQIKDKGNAYAAYYAPSVKGRFTISRDDSKNSIYLQMNSLKTEDTAVYYCHYVHYASASTVLPAFGVDAWGQGTTVTVSS VL: DIVMTQSPLSLPVTPGEPASISCQASQELVHPNRNTYLHWYQQKPGQAPRLLIYKVSNRFPGVPDRFSGSGSGTDFTLKISRVEAEDVGVYYCAQGTSVPFTFGQGTKLEIK |
| 0.9 | H183/L072 VL M27eG (antibody, name in Kabat numbering, V domains shown) VH: QVQLVESGGGLVQPGRSLRLSCAASGFTFSNAWMHWVRQAPGKGLEWVAQIKDKGNAYAAYYAPSVKGRFTISRDDSKNSIYLQMNSLKTEDTAVYYCHYVHYASASTVLPAFGVDAWGQGTTVTVSS VL: DIVMTQSPLSLPVTPGEPASISCQASQELVHGNRNTYLHWYQQKPGQAPRLLIYKVSNRFPGVPDRFSGSGSGTDFTLKISRVEAEDVGVYYCAQGTSVPFTFGQGTKLEIK |
| 1.1 | H183/L072 VL M27eQ (antibody, name in Kabat numbering, V domains shown) VH: QVQLVESGGGLVQPGRSLRLSCAASGFTFSNAWMHWVRQAPGKGLEWVAQIKDKGNAYAAYYAPSVKGRFTISRDDSKNSIYLQMNSLKTEDTAVYYCHYVHYASASTVLPAFGVDAWGQGTTVTVSS VL: DIVMTQSPLSLPVTPGEPASISCQASQELVHQNRNTYLHWYQQKPGQAPRLLIYKVSNRFPGVPDRFSGSGSGTDFTLKISRVEAEDVGVYYCAQGTSVPFTFGQGTKLEIK |
| 1 | H183/L072 VL M27eE (antibody, name in Kabat numbering, V domains shown) VH: QVQLVESGGGLVQPGRSLRLSCAASGFTFSNAWMHWVRQAPGKGLEWVAQIKDKGNAYAAYYAPSVKGRFTISRDDSKNSIYLQMNSLKTEDTAVYYCHYVHYASASTVLPAFGVDAWGQGTTVTVSS VL: DIVMTQSPLSLPVTPGEPASISCQASQELVHENRNTYLHWYQQKPGQAPRLLIYKVSNRFPGVPDRFSGSGSGTDFTLKISRVEAEDVGVYYCAQGTSVPFTFGQGTKLEIK |
| 0.9 | H183/L072 VL M27eN (antibody, name in Kabat numbering, V domains shown) VH: QVQLVESGGGLVQPGRSLRLSCAASGFTFSNAWMHWVRQAPGKGLEWVAQIKDKGNAYAAYYAPSVKGRFTISRDDSKNSIYLQMNSLKTEDTAVYYCHYVHYASASTVLPAFGVDAWGQGTTVTVSS VL: DIVMTQSPLSLPVTPGEPASISCQASQELVHNNRNTYLHWYQQKPGQAPRLLIYKVSNRFPGVPDRFSGSGSGTDFTLKISRVEAEDVGVYYCAQGTSVPFTFGQGTKLEIK |
| 1.7 | H183/L072 VL L33Q (antibody, name in Kabat numbering, V domains shown) VH: QVQLVESGGGLVQPGRSLRLSCAASGFTFSNAWMHWVRQAPGKGLEWVAQIKDKGNAYAAYYAPSVKGRFTISRDDSKNSIYLQMNSLKTEDTAVYYCHYVHYASASTVLPAFGVDAWGQGTTVTVSS VL: DIVMTQSPLSLPVTPGEPASISCQASQELVHMNRNTYQHWYQQKPGQAPRLLIYKVSNRFPGVPDRFSGSGSGTDFTLKISRVEAEDVGVYYCAQGTSVPFTFGQGTKLEIK |
| 1 | H183/L072 VL M27eL (antibody, name in Kabat numbering, V domains shown) VH: QVQLVESGGGLVQPGRSLRLSCAASGFTFSNAWMHWVRQAPGKGLEWVAQIKDKGNAYAAYYAPSVKGRFTISRDDSKNSIYLQMNSLKTEDTAVYYCHYVHYASASTVLPAFGVDAWGQGTTVTVSS VL: DIVMTQSPLSLPVTPGEPASISCQASQELVHLNRNTYLHWYQQKPGQAPRLLIYKVSNRFPGVPDRFSGSGSGTDFTLKISRVEAEDVGVYYCAQGTSVPFTFGQGTKLEIK |
| 1.3 | H183/L072 VL M27eA (antibody, name in Kabat numbering, V domains shown) VH: QVQLVESGGGLVQPGRSLRLSCAASGFTFSNAWMHWVRQAPGKGLEWVAQIKDKGNAYAAYYAPSVKGRFTISRDDSKNSIYLQMNSLKTEDTAVYYCHYVHYASASTVLPAFGVDAWGQGTTVTVSS VL: DIVMTQSPLSLPVTPGEPASISCQASQELVHANRNTYLHWYQQKPGQAPRLLIYKVSNRFPGVPDRFSGSGSGTDFTLKISRVEAEDVGVYYCAQGTSVPFTFGQGTKLEIK |
| 1.4 | H183/L072 VL M27eK (antibody, name in Kabat numbering, V domains shown) VH: QVQLVESGGGLVQPGRSLRLSCAASGFTFSNAWMHWVRQAPGKGLEWVAQIKDKGNAYAAYYAPSVKGRFTISRDDSKNSIYLQMNSLKTEDTAVYYCHYVHYASASTVLPAFGVDAWGQGTTVTVSS VL: DIVMTQSPLSLPVTPGEPASISCQASQELVHKNRNTYLHWYQQKPGQAPRLLIYKVSNRFPGVPDRFSGSGSGTDFTLKISRVEAEDVGVYYCAQGTSVPFTFGQGTKLEIK |
